Measured values as given in patent publication US20210332135A1.

Molecular target: recombinant CD47 extracellur domain protein (UniProt Q08722)
Assay: ELISA on recombinant CD47 extracellular domain protein

Sequence of recombinant CD47 extracellur domain protein (Q08722 19-139 limits assumed): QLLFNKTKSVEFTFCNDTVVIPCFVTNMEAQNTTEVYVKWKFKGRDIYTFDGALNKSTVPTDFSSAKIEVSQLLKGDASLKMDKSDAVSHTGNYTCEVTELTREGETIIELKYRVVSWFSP

EC50 [nM] | Substance
< 0.1 | CV1, high affinity SIRPa mutant (positive control)
> 100 | S007 (binding domain of human SIRPa, Gene 007, on human kappa light chain, co-expressed with an empty IgG1 heavy chain) (from UniProt P01834 1-107; P01857 1-330)
> 100 | S012 (binding domain of human SIRPa, Gene 012, on human kappa light chain, co-expressed with an empty IgG1 heavy chain) (from UniProt P01834 1-107; P01857 1-330)

Molecular target: recombinant PD-L1 extracellur domain protein (UniProt Q9NZQ7)
Assay: ELISA on recombinant PD-L1 extracellular domain protein

Sequence of recombinant PD-L1 extracellur domain protein (Q9NZQ7 19-238 limits assumed): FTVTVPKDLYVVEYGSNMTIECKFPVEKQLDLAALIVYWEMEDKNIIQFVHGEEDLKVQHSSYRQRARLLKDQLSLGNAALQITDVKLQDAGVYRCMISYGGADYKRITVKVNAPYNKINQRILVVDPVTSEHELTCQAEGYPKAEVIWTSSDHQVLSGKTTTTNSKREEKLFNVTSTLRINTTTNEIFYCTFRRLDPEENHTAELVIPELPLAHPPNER

EC50 [nM] | Substance
< 0.1 | HAC, high affinity PD-1 mutant (positive control)
> 100 | P048 (IgV domain of PD-1, Gene 048, on kappa chain, co-expressed with an empty IgG1 heavy chain) (from UniProt P01857 1-330)
> 100 | P050 (IgV domain of PD-1, lower affinity L128R mutant, Gene 050, on kappa chain, co-expressed with an empty IgG1 heavy chain) (from UniProt P01857 1-330)
